From paper PMC10400941 (Proceedings of the National Academy of Sciences of the …, 2023) come the findings set out here.

The target of one data set is T1, RpnAL (E. coli, UniProt P31667 1-292).
T1 sequence (looked up): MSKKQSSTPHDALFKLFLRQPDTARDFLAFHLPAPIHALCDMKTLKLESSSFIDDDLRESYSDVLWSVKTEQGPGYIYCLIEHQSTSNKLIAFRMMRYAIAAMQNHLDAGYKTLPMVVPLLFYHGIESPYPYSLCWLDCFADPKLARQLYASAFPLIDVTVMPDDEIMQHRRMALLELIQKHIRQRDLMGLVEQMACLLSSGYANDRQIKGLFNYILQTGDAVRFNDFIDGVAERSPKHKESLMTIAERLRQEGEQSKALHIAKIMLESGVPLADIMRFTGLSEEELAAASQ
Nature of the data set: SEC-MALS.

The data set “SEC-MALS” concerns the molecule itself. Nature of the data set: SEC-MALS. Background: In gel filtration, larger molecules generally elute earlier.

B1: RpnAS (domain or fragment, E. coli, UniProt P31667 244-292, looked up)
chain: MTIAERLRQEGEQSKALHIAKIMLESGVPLADIMRFTGLSEEELAAASQ
Broadly, the stoichiometry N is a count of units in the complex or per binding partner. B1: the results for the “stoichiometry N” value with RpnAL and in the data set “SEC-MALS” were 1 RpnAS per RpnAL (2:2) and 2, respectively.
